Numbering of substitutions follows the chain as printed. Values belong to the binder of their own block, whether it stands above or below them.
How the values were obtained:
[1] = target: T1, EGFRvIII expressed on cells (CHO^EGFRvIII, F98^EGFRvIII) (UniProt P00533 25-1210); test: cell-based or functional assay
T1 construct: whole, on cells; the vIII deletion must be applied; also called deletion mutant EGFRvIII

[2] = target: T2, EGFRvIII-Fc fusion antigen (human, UniProt P00533 25-645); test: ELISA on coated EGFRvIII-Fc; TandAb detected with Protein L-HRP, Abs(450nm) [EGFRvIII binding]
[3] = target: T2, EGFRvIII-Fc fusion antigen; test: SPR Biacore T200, EGFRvIII-Fc captured via anti-hu Fc, scFv analyte, 1:1 model;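 also: Multi-cycle kinetics on a CM5 chip in HBS-P+ running buffer, 180 s scFv association then 540 s dissociation, with blank flow cell signals subtracted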
Procedure: Anti-hu Fc IgG CM5-chip was prepared by covalent amine coupling by using the Amine-Coupling-Kit (GE), according to the instructions of the manufacturer. The IgG was diluted in the provided immobilization buffer (10 mM sodium acetate, pH 5.0) to a concentration of 25 μg/ml. For the coupling procedure, the predefined method “Amine” of the Biacore T200 control software was applied. A target level between 5000-10000 RU for all 4 flow cells was reached. The surface of the chip was activated with EDC/NHS before injecting the recombinant protein solutions. Free binding sites on the surface were blocked with ethanolamine. 1×HBS-P+ was selected as a running buffer for the entire coupling procedure.
Flowcell 1 and 3 were blanks. 1×HBS-P+ was used as running buffer for the entire procedure. The scFv antibodies were injected at a flow rate of 30 μL/min for 180 sec over all four flowcells. Signals measured in the flowcell 1 without captured antigen were subtracted from signals in the flowcell 2 to correct the binding curves for background binding. Signals measured in the flowcell 3 without captured antigen were subtracted from signals in the flowcell 4 to correct the binding curves for background binding. After 540 sec dissociation time the chip was regenerated as described below.
The Kinetics of scFv antibodies were determined in MCK (Multi Cycle Kinetic) measurements. For estimation of apparent binding affinities the binding curves were evaluated using the “Kinetic” method included in the Biacore evaluation software. By this method the binding curves are globally fitted by the software using the “Langmuir 1:1 interaction model”.

[4] = target: T1, EGFRvIII expressed on cells …; test: flow cytometry on F98^EGFRvIII cells; scFv detected with anti-His followed by FITC-conj. goat anti-mouse IgG, mean fluorescence intensity
[5] = target: T3, wild type EGFR expressed on cells (CHO^EGFR, F98^EGFR) (human, UniProt P00533 25-1210); test: flow cytometry on F98^EGFR cells; scFv detected with anti-His followed by FITC-conj. goat anti-mouse IgG
T3 construct: whole, on cells; also called native EGFR; EGFRwt
Procedure: After a second washing cycle, the cells were incubated with 0.1 mL of 15 μg/mL FITC-conjugated goat anti-mouse IgG antibodies under the same conditions as before. As a control, cells were incubated with the anti-His IgG 13/45/31 followed by the FITC-conjugated goat anti-mouse IgG antibodies without scFvs. The cells were then washed again and resuspended in 0.2 mL of FACS buffer containing 2 μg/mL propidium iodide in order to exclude dead cells. The fluorescence of 1×10⁴ living cells was measured using a Beckman-Coulter FC500 MPL flow cytometer using the MXP software (Beckman-Coulter, Krefeld, Germany) or a Millipore Guava EasyCyte flow cytometer using the Incyte software (Merck Millipore, Schwalbach, Germany). Mean fluorescence intensities of the cell samples were calculated using CXP software (Beckman-Coulter, Krefeld, Germany) or Incyte software (Merck Millipore, Schwalbach, Germany).
In case of analysis with Beckman-Coulter FC500 MPL flow cytometer 0.5×10⁶ cells/staining and in case of Millipore Guava EasyCyte flow cytometer only 0.25×10⁶ cells/staining were used.

- EC50 (read off the curve) [2]: 0.9 nM
B5: TandAb EGFRvIII(ABC479)/CD3, domain order (iv) VH^EGFRvIII-VL^CD3-VH^CD3-VL^EGFRvIII (bispecific antibody, part only; not given: CD3 domain and linkers, part only)
tandem diabody polypeptide (homodimer), part: QSGAEVKKPGEVQLVESLKISCKGSGYDFSSYWIGWVRQMPGKGLEWMGIIYPGDSDTIYSPSFQGQVTISADKSISTAYLQWSSLKASDTAMYYCARLGSSWTNDAFDIWGQGTLVTVSSSYELTQPPSVSVSPGQTARITCSGAALPEQYAYWYQQKPGQAPVLVIYKDSERPSGIPERFSGSSSGTTVTLTISGVQAEDEADYYCQSVDSSGTFYVFGGGTKLTVL

- KD improvement factor vs parental scFv Li3G30 [3]: 10.8 fold
- Kd [3]: 0.72 nM
- kOFF improvement factor vs parental scFv Li3G30 [3]: 2 fold
- kON improvement factor vs parental scFv Li3G30 [3]: 5.2 fold
- koff [3]: 0.0006 s⁻¹
- kon [3]: 830000 M⁻¹ s⁻¹
- EC50 (read off the curve) [4]: 2 nM
B6: scFv 469 (scFv, V domains shown)
VH: EVQLVQSGAEVKKPGESLKISCKGSGYSFNSYWIGWVRQMPGKGLEWMGIIYPGDSDTRYSPSFQGQVTISADKSISTAYLQWSSLKASDTAMYYCARLGSSWTNDAFDIWGQGTLVTVSS
VL: SYELTQPPSVSVSPGQTARITCSGDTLPKQYAYWYQQKPGQAPVLVIYKDSERPSGIPERFSGSSSGTTVTLTISGVQAEDEADYYCQSVDVSGTYVVFGGGTKLTVL
notes: One-chain scFv, His-tagged

- KD improvement factor vs parental scFv Li3G30 [3]: 11.1 fold
- Kd [3]: 0.7 nM
- kOFF improvement factor vs parental scFv Li3G30 [3]: 1.5 fold
- kON improvement factor vs parental scFv Li3G30 [3]: 7.5 fold
- koff [3]: 0.0008 s⁻¹
- kon [3]: 1.2e+06 M⁻¹ s⁻¹
- binding result [5]: no binding (tested: about 3300 nM)
- EC50 (read off the curve) [4]: ~2 nM
B7: scFv 475 (scFv, V domains shown)
VH: B6 VH with N30T, G54D
VL: B6 VL with T26A, S51T, V92S
notes: One-chain scFv, His-tagged

- KD improvement factor vs parental scFv Li3G30 [3]: 3.1 fold
- Kd [3]: 2.54 nM
- kOFF improvement factor vs parental scFv Li3G30 [3]: 1.3 fold
- kON improvement factor vs parental scFv Li3G30 [3]: 2.4 fold
- koff [3]: 0.00096 s⁻¹
- kon [3]: 380000 M⁻¹ s⁻¹
B8: scFv 479 (scFv, V domains shown)
VH: B6 VH with S28D, N30S, R59I
VL: B6 VL with D25A, T26A, K29E, V92S, Y96F, V97Y
notes: One-chain scFv, His-tagged

Second part, the binder before the results:

B1: EGFRvIII/CD3 TandAb with EGFRvIII binding domain ABC471, domain order (iv) VH^EGFRvIII-VL^CD3-VH^CD3-VL^EGFRvIII (bispecific antibody, part only; not given: CD3 domain and linkers, not shown: small tags and cut ends)
chain, part: EVQLVQSGAEVKKPGESLKISCKGSGYSFNSYWIGWVRQMPGKGLEWMGIIYPGDSANRYSPSFQGQVTISADKSISTAYLQWSSLKASDTAMYYCARLGSSWTNDAFDIWGQGTLVTVSSSYELTQPPSVSVSPGQTARITCSGDYLPKQYAYWYQQKPGQAPVLVIYKDTERPSGIPERFSGSSSGTTVTLTISGVQAEDEADYYCQSVDSSHPSVVFGGGTKLTVL
- Cytotoxic potency EC50 [1]: 3.1 nM
- cytotoxicity improvement factor relative to parental TandAb [1]: 69.8 fold
- EC50 (read off the curve) [2]: 0.6 nM

B2: EGFRvIII/CD3 tandem diabody with parental EGFRvIII binding domain Li3G30 and CD3 domain v64, domain order (i) VL^CD3-VH^EGFRvIII-VL^EGFRvIII-VH^CD3 … (bispecific antibody, part only; not given: CD3 v64 domain and linkers, not shown: small tags and cut ends)
chain, part: EVQLVQSGAEVKKPGESLKISCKGSGYSFTSYWIGWVRQMPGKGLEWMGIIYPGDSDTRYSPSFQGQVTISADKSISTAYLQWSSLKASDTAMYYCARLGSSWTNDAFDIWGQGTMVTVSSSYELTQPPSVSVSPGQTARITCSGDALPKQYAYWYQQKPGQAPVLVIYKDSERPSGIPERFSGSSSGTTVTLTISGVQAEDEADYYCQSADSSGTPLIVFGTGTKLTVL
- EC50 in the cytotoxicity assay (CHO^EGFRvIII target cells) [1]: 0.025 nM

B3: TandAb EGFRvIII(ABC479)/CD3(v64) (bispecific antibody)
tandem diabody polypeptide (homodimer): DIQMTQSPSSLSASVGDRVTITCRSSTGAVTTSNYANWVQQKPGKAPKALIGGTNKRAPGVPSRFSGSLIGDKATLTISSLQPEDFATYYCALWYSNLWVFGQGTKVEIKQSGAEVKKPGEVQLVESLKISCKGSGYDFSSYWIGWVRQMPGKGLEWMGIIYPGDSDTIYSPSFQGQVTISADKSISTAYLQWSSLKASDTAMYYCARLGSSWTNDAFDIWGQGTLVTVSSSYELTQPPSVSVSPGQTARITCSGAALPEQYAYWYQQKPGQAPVLVIYKDSERPSGIPERFSGSSSGTTVTLTISGVQAEDEADYYCQSVDSSGTFYVFGGGTKLTVLEVQLVESGGGLVQPGGSLRLSCAASGFTFSTYAMNWVRQAPGKGLEWVGRIRSKYNNYATYYADSVKDRFTISRDDSKNSLYLQMNSLKTEDTAVYYCARHGNFGNSYVSYFAYWGQGTLVTVSS
notes: also called domain order (i) VL^CD3-VH^EGFRvIII-VL^EGFRvIII-VH^CD3
- EC50 (read off the curve) [2]: ~4 nM

B4: TandAb EGFRvIII(ABC478)/CD3(v64) (bispecific antibody)
tandem diabody polypeptide (homodimer): DIQMTQSPSSLSASVGDRVTITCRSSTGAVTTSNYANWVQQKPGKAPKALIGGTNKRAPGVPSRFSGSLIGDKATLTISSLQPEDFATYYCALWYSNLWVFGQGTKVEIKEVQLVQSGAEVKKPGESLKISCKGSGYSFNSYWIGWVRQMPGKGLEWMGIIYPGDEDTRYSPSFQGQVTISADKSISTAYLQWSSLKASDTAMYYCARLGSSWTNDAFDIWGQGTLVTVSSSYELTQPPSVSVSPGQTARITCSGDALPKQYAYWYQQKPGQAPVLVIYKDTERPSGIPERFSGSSSGTTVTLTISGVQAEDEADYYCQSVDPSGTYVVFGGGTKLTVLEVQLVESGGGLVQPGGSLRLSCAASGFTFSTYAMNWVRQAPGKGLEWVGRIRSKYNNYATYYADSVKDRFTISRDDSKNSLYLQMNSLKTEDTAVYYCARHGNFGNSYVSYFAYWGQGTLVTVSS
notes: as for B3
- EC50 (read off the curve) [2]: ~1 nM
